The values that follow come from paper PMC7278359 (The Journal of Biological Chemistry, 2020).

Assay [1] addresses Nck1-SH3.1 (residues 4–59) (human, UniProt P16333 4-59). The assay can be described thus: crystal structure; Nck1-SH3.1 (4-59) with 2-fold molar excess of Ac-…-NH2; 0.1 M Bis-Tris/HCl pH 6.5, 2 M (NH4)2SO4; sitting drop, 22 °C; two complexes in the asymmetric unit (5QU2). Particulars: both partners purified.
Assay [2] shares this target. Kind of assay: crystal structure; Nck1-SH3.1 with 2-fold molar excess of Ac-…-NH2; 0.1 M BisTris/HCl pH 6.5, 2 M (NH4)2SO4; space group I212121, two complexes in the asymmetric unit. The following applies: both partners purified.

B1: CD3ε-derived peptide Ac-PPPVPNPDY-NH2 (residues 180–188) (peptide)
peptide: Ac-PPPVPNPDY-NH2
notes: also called minimal CD3ε peptide; source: synthetic peptide, from Biosynthan
For the molecule B1, the binding result in assay [1] is given as “binds”.

B2: minimal CD3ϵ peptide Ac-PPPVPNPDY-NH2 (residues 180–188) (peptide)
peptide: Ac-PPPVPNPDY-NH2
notes: CD3ϵ residues 180–188 (PRS); MM 1109.3 Da; source: synthetic peptide (bought: Biosynthan)
Take B2: in assay [2], the binding result is reported as “binds”.
